Experiments:
Human myoblasts = test: Expression array of the innate immune response to lentiviral infection versus uninfected cells; format: cell-based
Procedure: RNA was harvested from the lenti-viral infected cells and uninfected control cells at 24 hours after infection.

[1] = system: cultured human skeletal muscle cells; conditions: cited from earlier work
[2] = system: human rhabdomyosarcoma cell line RD; test: Luciferase reporter assay with DUX4 binding sites; format: cell-based
Procedure: The DUX4 binding site in the ZSCAN4 pGL3-promoter construct was either reversed in orientation (as shown in FIG. 3D) or moved downstream of the reporter gene (as shown in FIG. 3E). […] Transfections and luciferase assays were done as in main methods. Data are given as the averages±SD of triplicates.
Transient DNA transfections of RD cells were performed using SuperFect (Qiagen) according to manufacturer specifications. Briefly, 3×10^5 cells were seeded per 35 mm plate the day prior to transfection. […] Cells were lysed 24 h post-transfection in Passive Lysis Buffer (Promega). Luciferase activities were quantified using reagents from the Dual-Luciferase Reporter Assay System (Promega) following manufacturer's instructions. Light emission was measured using BioTek Synergy2 luminometer. Luciferase data are given as the averages±SD of at least triplicates.

B1: DUX4-s: short splice form of DUX4 (SEQ ID NO:112), keeps the double-homeobox domains, lacks the C-terminal activation domain (protein, listed as Homo sapiens)
chain: MALPTPSDSTLPAEARGRGRRRRLVWTPSQSEALRACFERNPYPGIATRERLAQAIGIPEPRVQIWFQNERSRQLRQHRRESRPWPGRRGPPEGRRKRTAVTGSQTALLLRAFEKDRFPGIAAREELARETGLPESRIQIWFQNRRARHPGQGGRAPAQV
- IL1R1 expression ratio vs NoLenti (.fc) (Human myoblasts; gene IL1R1 NM_000877.2, vs uninfected, 24 hours after infection): 1.61 log2 fold change
- IL7R expression ratio vs GFP (.fc) (Human myoblasts; gene IL7R NM_002185.2, vs lenti-GFP, 24 hours after infection): 0.57 log2 fold change
- IL7R expression ratio vs NoLenti (.fc) (Human myoblasts; gene IL7R NM_002185.2, vs uninfected, 24 hours after infection): 2.05 log2 fold change
- IL8 expression ratio vs GFP (.fc) (Human myoblasts; gene IL8 NM_000584.2, vs lenti-GFP, 24 hours after infection): 1.19 log2 fold change
- IL8 expression ratio vs NoLenti (.fc) (Human myoblasts; gene IL8 NM_000584.2, vs uninfected, 24 hours after infection): 4.69 log2 fold change
- IL18BP expression ratio vs GFP (.fc) (Human myoblasts; gene IL18BP NM_173042.2, vs lenti-GFP, 24 hours after infection): 1.40 log2 fold change
- IL18BP expression ratio vs NoLenti (.fc) (Human myoblasts; gene IL18BP NM_173042.2, vs uninfected, 24 hours after infection): 3.37 log2 fold change
- IRF7 expression ratio vs GFP (.fc) (Human myoblasts; gene IRF7 NM_004029.2, vs lenti-GFP, 24 hours after infection): 1.14 log2 fold change
- IRF7 expression ratio vs NoLenti (.fc) (Human myoblasts; gene IRF7 NM_004029.2, vs uninfected, 24 hours after infection): 3.99 log2 fold change
- IRF9 expression ratio vs GFP (.fc) (Human myoblasts; gene IRF9 NM_006084.4, vs lenti-GFP, 24 hours after infection): 0.29 log2 fold change
- IRF9 expression ratio vs NoLenti (.fc) (Human myoblasts; gene IRF9 NM_006084.4, vs uninfected, 24 hours after infection): 2.72 log2 fold change
- MX1 expression ratio vs GFP (.fc) (Human myoblasts; gene MX1 NM_002462.2, vs lenti-GFP, 24 hours after infection): 0.26 log2 fold change
- MX1 expression ratio vs NoLenti (.fc) (Human myoblasts; gene MX1 NM_002462.2, vs uninfected, 24 hours after infection): 7.49 log2 fold change
- NFIL3 expression ratio vs GFP (.fc) (Human myoblasts; gene NFIL3 NM_005384.2, vs lenti-GFP, 24 hours after infection): 0.32 log2 fold change
- NFIL3 expression ratio vs NoLenti (.fc) (Human myoblasts; gene NFIL3 NM_005384.2, vs uninfected, 24 hours after infection): 2.16 log2 fold change
- NFKBIA expression ratio vs GFP (.fc) (Human myoblasts; gene NFKBIA NM_020529.1, vs lenti-GFP, 24 hours after infection): 0.28 log2 fold change
- NFKBIA expression ratio vs NoLenti (.fc) (Human myoblasts; gene NFKBIA NM_020529.1, vs uninfected, 24 hours after infection): 2.46 log2 fold change
- NFKBIZ expression ratio vs GFP (.fc) (Human myoblasts; gene NFKBIZ NM_001005474.1, vs lenti-GFP, 24 hours after infection): −0.26 log2 fold change
- NFKBIZ expression ratio vs NoLenti (.fc) (Human myoblasts; gene NFKBIZ NM_001005474.1, vs uninfected, 24 hours after infection): 1.58 log2 fold change
- STAT1 expression ratio vs GFP (.fc) (Human myoblasts; gene STAT1 NM_007315.2, vs lenti-GFP, 24 hours after infection): 0.82 log2 fold change
- STAT1 expression ratio vs NoLenti (.fc) (Human myoblasts; gene STAT1 NM_007315.2, vs uninfected, 24 hours after infection): 4.79 log2 fold change
- STAT2 expression ratio vs GFP (.fc) (Human myoblasts; gene STAT2 NM_005419.2, vs lenti-GFP, 24 hours after infection): 0.19 log2 fold change
- STAT2 expression ratio vs NoLenti (.fc) (Human myoblasts; gene STAT2 NM_005419.2, vs uninfected, 24 hours after infection): 2.11 log2 fold change
- TLR3 expression ratio vs GFP (.fc) (Human myoblasts; gene TLR3 NM_003265.2, vs lenti-GFP, 24 hours after infection): 1.67 log2 fold change
- TLR3 expression ratio vs NoLenti (.fc) (Human myoblasts; gene TLR3 NM_003265.2, vs uninfected, 24 hours after infection): 2.56 log2 fold change
- TNFAIP2 expression ratio vs GFP (.fc) (Human myoblasts; gene TNFAIP2 NM_006291.2, vs lenti-GFP, 24 hours after infection): 0.06 log2 fold change
- TNFAIP2 expression ratio vs NoLenti (.fc) (Human myoblasts; gene TNFAIP2 NM_006291.2, vs uninfected, 24 hours after infection): 1.06 log2 fold change
- TNFAIP3 expression ratio vs GFP (.fc) (Human myoblasts; gene TNFAIP3 NM_006290.2, vs lenti-GFP, 24 hours after infection): 0.28 log2 fold change
- TNFAIP3 expression ratio vs NoLenti (.fc) (Human myoblasts; gene TNFAIP3 NM_006290.2, vs uninfected, 24 hours after infection): 2.50 log2 fold change
- TNFAIP6 expression ratio vs GFP (.fc) (Human myoblasts; gene TNFAIP6 NM_007115.2, vs lenti-GFP, 24 hours after infection): 1.31 log2 fold change
- TNFAIP6 expression ratio vs NoLenti (.fc) (Human myoblasts; gene TNFAIP6 NM_007115.2, vs uninfected, 24 hours after infection): 5.10 log2 fold change
- TNFRSF6B expression ratio vs GFP (.fc) (Human myoblasts; gene TNFRSF6B NM_032945.2, vs lenti-GFP, 24 hours after infection): 0.01 log2 fold change
- TNFRSF6B expression ratio vs NoLenti (.fc) (Human myoblasts; gene TNFRSF6B NM_032945.2, vs uninfected, 24 hours after infection): 1.32 log2 fold change
- TNFRSF10A expression ratio vs GFP (.fc) (Human myoblasts; gene TNFRSF10A NM_003844.2, vs lenti-GFP, 24 hours after infection): 0.84 log2 fold change
- TNFRSF10A expression ratio vs NoLenti (.fc) (Human myoblasts; gene TNFRSF10A NM_003844.2, vs uninfected, 24 hours after infection): 1.81 log2 fold change
- TNFRSF14 expression ratio vs GFP (.fc) (Human myoblasts; gene TNFRSF14 NM_003820.2, vs lenti-GFP, 24 hours after infection): 0.57 log2 fold change
- TNFRSF14 expression ratio vs NoLenti (.fc) (Human myoblasts; gene TNFRSF14 NM_003820.2, vs uninfected, 24 hours after infection): 1.78 log2 fold change
- TNFSF10 expression ratio vs GFP (.fc) (Human myoblasts; gene TNFSF10 NM_003810.2, vs lenti-GFP, 24 hours after infection): 2.97 log2 fold change
- TNFSF10 expression ratio vs NoLenti (.fc) (Human myoblasts; gene TNFSF10 NM_003810.2, vs uninfected, 24 hours after infection): 3.88 log2 fold change
- TNFSF13B expression ratio vs GFP (.fc) (Human myoblasts; gene TNFSF13B NM_006573.3, vs lenti-GFP, 24 hours after infection): 2.19 log2 fold change
- TNFSF13B expression ratio vs NoLenti (.fc) (Human myoblasts; gene TNFSF13B NM_006573.3, vs uninfected, 24 hours after infection): 3.78 log2 fold change
- number of the 341 lenti-GFP induced genes induced 2-fold or more (Human myoblasts; vs uninfected cells, 24 hours): 315 genes
- toxicity of forced over-expression [1]: not toxic
- luciferase expression from pGL3-promoter reporter with 31 bp DUX4 binding site ([2]; TRIM48 or ZSCAN4 site, co-transfection in RD cells): did not activate expression
- effect on DUX4-fl reporter activation when co-expressed ([2]; ZSCAN4 1.9 kb reporter): interfered with the activity of DUX4-fl
